Measured values reported in PMC3237458, “PEGylation Potentiates the Effectiveness of an Antagonistic Peptide That Targets the EphB4 Receptor with Nanomolar Affinity” (PLoS ONE, 2011).

Molecular target: EphB4 Fc (UniProt P54761)
Sequence (P54761 16-539): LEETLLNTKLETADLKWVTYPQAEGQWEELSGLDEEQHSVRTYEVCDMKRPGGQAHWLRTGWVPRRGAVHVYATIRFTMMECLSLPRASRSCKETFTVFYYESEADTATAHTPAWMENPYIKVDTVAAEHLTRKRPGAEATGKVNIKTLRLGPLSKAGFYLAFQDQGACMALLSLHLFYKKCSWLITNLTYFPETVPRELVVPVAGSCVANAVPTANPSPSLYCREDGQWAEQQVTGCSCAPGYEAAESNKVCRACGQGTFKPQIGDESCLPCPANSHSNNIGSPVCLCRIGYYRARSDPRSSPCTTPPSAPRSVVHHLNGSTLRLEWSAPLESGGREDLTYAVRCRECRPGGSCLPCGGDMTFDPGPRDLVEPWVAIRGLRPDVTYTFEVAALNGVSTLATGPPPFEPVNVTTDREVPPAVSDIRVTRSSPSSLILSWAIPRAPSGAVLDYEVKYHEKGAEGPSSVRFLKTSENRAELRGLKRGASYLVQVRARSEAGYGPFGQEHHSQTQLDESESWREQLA

PEGylated TNYL-RAW (PEG-TNYL-RAW) (peptide)
inhibition of ephrin-B2 Fc-induced tyrosine phosphorylation of endogenous EphB4 in B16 melanoma cells (blocks EphB4 with ephrin-B2); 2 µM peptide reduce phosphorylation to undetectable levels: 90 nM
